Test results reported in patent US20190330374A1.

Key:
[1] = molecular target: OX40 on activated T cells (PBMCs activated with Human T cell Activator Dynabeads) (human) (UniProt P43489); assay: flow cytometry on activated PBMCs, CD4+ T cells with high OX40
[2] = molecular target: OX40 on activated T cells (PBMCs activated with Human T cell Activator Dynabeads) (human) (UniProt P43489); assay: flow cytometry on activated PBMCs, CD8+ T cells with low OX40
OX40-Fc (R&D) (human) [3] = molecular target: OX40-Fc (R&D) (human) (UniProt P43489); assay: ELISA, plate coated with 1.6 ng/mL OX40-Fc, anti-human kappa-HRP detection
Sequence of OX40-Fc (R&D) (human) (P43489 29-216 limits assumed): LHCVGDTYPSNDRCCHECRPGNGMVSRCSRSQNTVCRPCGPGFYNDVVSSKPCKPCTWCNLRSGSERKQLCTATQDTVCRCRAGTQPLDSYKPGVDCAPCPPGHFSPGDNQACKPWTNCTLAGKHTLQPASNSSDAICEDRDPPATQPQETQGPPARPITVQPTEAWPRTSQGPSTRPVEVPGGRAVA

OX40-Fc (R&D) (human) [4] = molecular target: OX40-Fc (R&D) (human) (UniProt P43489); assay: ELISA, plate coated with 0.4 ng/mL OX40-Fc, anti-human kappa-HRP detection

Sequence of OX40 on activated T cells (PBMCs activated with Human T cell Activator Dynabeads) (human) (P43489 29-277): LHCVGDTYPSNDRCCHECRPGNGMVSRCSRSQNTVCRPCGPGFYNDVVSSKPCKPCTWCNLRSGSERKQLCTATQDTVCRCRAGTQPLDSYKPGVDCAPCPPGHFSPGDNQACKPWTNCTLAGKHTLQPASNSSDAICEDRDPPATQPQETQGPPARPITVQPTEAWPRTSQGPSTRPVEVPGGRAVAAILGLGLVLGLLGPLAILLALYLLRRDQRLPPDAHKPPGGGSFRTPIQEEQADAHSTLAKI

B1: Anti-OX40 #1-IgM (antibody, V domains shown)
VH: QVQLQESGPGLVKPSQTLSLTCAVYGGSFSSGYWNWIRKHPGKGLEYIGYISYNGITYHNPSLKSRITINRDTSKNQYSLQLNSVTPEDTAVYYCARYKYDYDGGHAMDYWGQGTLVTVSS
VL: DIQMTQSPSSLSASVGDRVTITCRASQDISNYLNWYQQKPGKAPKLLIYYTSKLHSGVPSRFSGSGSGTDYTLTISSLQPEDFATYYCQQGSALPWTFGQGTKVEIK
- fold better binding than Anti-OX40 #1-IgG (ratio of Kd, IgG to IgM) [1]: 6 fold
- fold better binding than Anti-OX40 #1-IgG (ratio of Kd, IgG to IgM) [2]: 25 fold
- fold better binding than Anti-OX40 #1-IgG (ratio of Bmax) (OX40-Fc (R&D) (human) [3]): 1.2 fold
- fold better binding than Anti-OX40 #1-IgG (ratio of Bmax) (OX40-Fc (R&D) (human) [4]): 28 fold
